{
  "source": "paper doi:10.1101/2024.06.13.598777",
  "about": "“Acetylation of the yeast Hsp40 chaperone protein Ydj1 fine-tunes proteostasis and translational fidelity” (bioRxiv, 2024)",
  "binders": {"B1": {"name": "His-tagged Ydj1 wild-type, biotinylated (natural protein, yeast, UniProt P25491 1-409, looked up)", "chain": "MVKETKFYDILGVPVTATDVEIKKAYRKCALKYHPDKNPSEEAAEKFKEASAAYEILSDPEKRDIYDQFGEDGLSGAGGAGGFPGGGFGFGDDIFSQFFGAGGAQRPRGPQRGKDIKHEISASLEELYKGRTAKLALNKQILCKECEGRGGKKGAVKKCTSCNGQGIKFVTRQMGPMIQRFQTECDVCHGTGDIIDPKDRCKSCNGKKVENERKILEVHVEPGMKDGQRIVFKGEADQAPDVIPGDVVFIVSERPHKSFKRDGDDLVYEAEIDLLTAIAGGEFALEHVSGDWLKVGIVPGEVIAPGMRKVIEGKGMPIPKYGGYGNLIIKFTIKFPENHFTSEENLKKLEEILPPRIVPAIPKKATVDECVLADFDPAKYNRTRASRGGANYDSDEEEQGGEGVQCASQ", "modifications": "biotin (labeled with a 1.5-fold excess of NHS-PEG4-Biotin)", "notes": "Ydj1, yeast Hsp40; YDJ1 gene PCR amplified from yeast genomic DNA into pRSETA; A fragment lacking the J-domain (delta J) co-purifies with the recombinant protein; also called Ydj1-biotin; HIS-Ydj1; source: E. coli Rosetta (DE3), purified (Ni-sepharose, Superdex 200)"}, "B2": {"name": "His-tagged Ydj1 K23Q, biotinylated (natural protein, yeast, UniProt P25491 1-409, looked up)", "chain": "B1 chain with K23Q", "modifications": "biotin (labeled with a 1.5-fold excess of NHS-PEG4-Biotin)", "notes": "Ydj1, yeast Hsp40, acetyl-mimic mutant; Same construct as m5 with the mutation; source: E. coli Rosetta (DE3), purified (Ni-sepharose, Superdex 200)"}, "B3": {"name": "His-tagged Ydj1 K37R, biotinylated (natural protein, yeast, UniProt P25491 1-409, looked up)", "chain": "B1 chain with K37R", "modifications": "biotin (labeled with a 1.5-fold excess of NHS-PEG4-Biotin)", "notes": "Same construct as m5 with the mutation; source: E. coli Rosetta (DE3), purified (Ni-sepharose, Superdex 200)"}, "B4": {"name": "His-tagged Ydj1 K23R, biotinylated (natural protein, yeast, UniProt P25491 1-409, looked up)", "chain": "B1 chain with K23R", "modifications": "biotin (labeled with a 1.5-fold excess of NHS-PEG4-Biotin)", "notes": "as for B3"}},
  "biological_target": "T1, Ssa1 (purified) (yeast, UniProt P10591 1-642)",
  "T1 construct": "Ssa1, yeast Hsp70; also called Hsp70; source: isolated as previously described [51]",
  "T1 sequence (P10591 whole entry)": "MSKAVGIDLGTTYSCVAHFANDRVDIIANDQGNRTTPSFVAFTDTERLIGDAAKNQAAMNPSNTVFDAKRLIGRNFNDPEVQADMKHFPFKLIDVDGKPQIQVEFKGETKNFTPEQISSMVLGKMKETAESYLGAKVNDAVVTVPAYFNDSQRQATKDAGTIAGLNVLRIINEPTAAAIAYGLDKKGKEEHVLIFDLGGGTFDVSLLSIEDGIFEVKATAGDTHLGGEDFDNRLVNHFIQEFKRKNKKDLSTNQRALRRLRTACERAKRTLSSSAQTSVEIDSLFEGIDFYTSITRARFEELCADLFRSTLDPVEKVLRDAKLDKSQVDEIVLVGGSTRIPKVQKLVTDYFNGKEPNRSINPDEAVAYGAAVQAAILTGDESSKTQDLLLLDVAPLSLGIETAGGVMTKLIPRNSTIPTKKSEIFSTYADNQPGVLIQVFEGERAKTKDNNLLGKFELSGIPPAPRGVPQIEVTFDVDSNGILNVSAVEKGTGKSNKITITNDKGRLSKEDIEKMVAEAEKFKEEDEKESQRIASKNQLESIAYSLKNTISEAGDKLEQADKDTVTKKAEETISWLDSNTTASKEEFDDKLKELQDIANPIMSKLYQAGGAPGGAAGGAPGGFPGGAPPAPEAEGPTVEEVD",
  "experiment": "BLI; Ydj1-biotin (5 ug/ml) on streptavidin biosensors, Ssa1 1 uM in solution, 23 °C, 25 mM Hepes pH 7.5, 50 mM KCl, 2 mM DTT, 5 mM MgCl2, 0.5 mM ATP, 0.02% Tween-20; Octet R4; reference sensor subtracted",
  "conditions": "both partners purified",
  "note": "Where a chain is given by its changes, count along the chain named. Names may count otherwise.",
  "data": [
    {"binder": "B1", "values": [
      {"measurement": "binding result", "value": "binds"}
    ]},
    {"binder": "B2", "values": [
      {"measurement": "binding result", "value": "binds"}
    ]},
    {"binder": "B3", "values": [
      {"measurement": "binding result", "value": "binds"}
    ]},
    {"binder": "B4", "values": [
      {"measurement": "binding result", "value": "binds"}
    ]}
  ]
}
